Patent US20020155500A1 (CURIS, published 2002)

Legend:
[1] = molecular target: T1, ALK-4 (transfected cDNA, on cells) (UniProt P36896 24-505, limits assumed); assay: affinity cross-linking of ^125I-BMP4 to COS-1 cells transfected with ALK4 and daf-4 cDNA; immunoprecipitation with ALK antiserum, autoradiography
T1 construct: whole, on cells
T1 sequence (looked up): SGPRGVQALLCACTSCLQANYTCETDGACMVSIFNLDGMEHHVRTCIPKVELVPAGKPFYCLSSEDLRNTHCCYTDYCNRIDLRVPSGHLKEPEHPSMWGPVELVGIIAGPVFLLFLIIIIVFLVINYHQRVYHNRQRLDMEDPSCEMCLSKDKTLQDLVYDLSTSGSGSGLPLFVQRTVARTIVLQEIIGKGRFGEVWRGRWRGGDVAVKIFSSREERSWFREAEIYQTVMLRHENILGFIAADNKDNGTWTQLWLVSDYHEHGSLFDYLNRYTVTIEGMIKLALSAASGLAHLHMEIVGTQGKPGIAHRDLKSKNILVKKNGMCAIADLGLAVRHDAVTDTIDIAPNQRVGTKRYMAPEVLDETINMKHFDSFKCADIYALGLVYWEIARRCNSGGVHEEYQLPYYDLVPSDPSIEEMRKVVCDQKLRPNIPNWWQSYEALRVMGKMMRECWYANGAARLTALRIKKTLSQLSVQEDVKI
Protocol: (§1) Briefly, cells in multi-well plates were washed with binding buffer (e.g., phosphate buffered saline containing 0.9 mM CaCl₂, 0.49 mM MgCl₂ and 1 mg/ml bovine serum albumin (BSA)), incubated on ice in the same buffer with labelled ligand, in the presence and absence of excess unlabelled ligand for sufficient time for the reaction to equilibrate (e.g., 3 hours.) Cells were washed and the crosslinking was done in the binding buffer without BSA together with 0.28 mM disuccinimidyl suberate for 15 min on ice. […] Cells were centrifuged again and supernatants subjected to analysis by standard SDS-gel electrophoresis using 4%-15% polyacrylamide gels, followed by autoradiography.
(§2) The gels were fixed and dried, and then subjected to autoradiography or analysis using phosphorimager (Molecular Dynamics).
(§3) In the Table, “N/T” means “not tested”. […] The values represented by “+/−”, “+”, “++”, “+++”, and “−”, are all qualitative descriptors of the relative amount of radioactivity measured when the crosslinked molecules were gel electrophoresed and subjected to autoradiography.

[2] = molecular target: ALK-1 (transfected cDNA, on cells) (Homo sapiens (Human), UniProt P37023 22-503); assay: affinity cross-linking of ^125I-BMP4 to COS-1 cells transfected with ALK1 and daf-4 cDNA; immunoprecipitation with ALK antiserum, autoradiography
Chain of ALK-1 (transfected cDNA, on cells) (P37023 22-503 S172T limits assumed): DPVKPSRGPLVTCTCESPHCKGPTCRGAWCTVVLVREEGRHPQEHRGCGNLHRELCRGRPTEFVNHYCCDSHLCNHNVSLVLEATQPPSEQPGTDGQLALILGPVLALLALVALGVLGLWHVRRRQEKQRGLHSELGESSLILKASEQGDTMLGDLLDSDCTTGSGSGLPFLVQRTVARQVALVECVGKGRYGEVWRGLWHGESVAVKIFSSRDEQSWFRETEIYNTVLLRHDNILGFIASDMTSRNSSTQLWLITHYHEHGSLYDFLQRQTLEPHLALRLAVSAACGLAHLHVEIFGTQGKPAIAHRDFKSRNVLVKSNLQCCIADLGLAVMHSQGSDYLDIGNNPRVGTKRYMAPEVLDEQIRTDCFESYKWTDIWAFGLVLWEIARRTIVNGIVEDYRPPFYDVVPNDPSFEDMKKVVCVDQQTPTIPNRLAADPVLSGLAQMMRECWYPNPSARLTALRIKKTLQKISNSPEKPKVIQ
Protocol: as §1, §2, §3

[3] = molecular target: T2, ALK-5 (transfected cDNA, on cells) (UniProt P36897 34-503, limits assumed); assay: affinity cross-linking of ^125I-BMP4 to COS-1 cells transfected with ALK5 and daf-4 cDNA; immunoprecipitation with ALK antiserum, autoradiography
T2 construct: whole, on cells
T2 sequence (looked up): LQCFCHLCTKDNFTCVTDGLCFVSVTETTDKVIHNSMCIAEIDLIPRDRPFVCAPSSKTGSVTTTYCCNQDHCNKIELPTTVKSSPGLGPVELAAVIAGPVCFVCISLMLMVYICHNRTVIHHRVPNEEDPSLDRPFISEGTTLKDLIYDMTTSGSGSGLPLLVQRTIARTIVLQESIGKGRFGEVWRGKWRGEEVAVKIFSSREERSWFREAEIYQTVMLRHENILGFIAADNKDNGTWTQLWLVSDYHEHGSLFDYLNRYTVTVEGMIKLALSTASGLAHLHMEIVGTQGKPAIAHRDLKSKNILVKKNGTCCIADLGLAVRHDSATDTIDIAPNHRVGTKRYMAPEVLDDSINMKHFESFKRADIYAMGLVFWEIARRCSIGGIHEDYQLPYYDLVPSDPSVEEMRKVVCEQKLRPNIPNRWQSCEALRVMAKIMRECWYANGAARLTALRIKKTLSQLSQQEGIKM
Protocol: as §1, §2, §3

[4] = molecular target: T3, ALK-2 (transfected cDNA, on cells) (Homo sapiens (Human), UniProt Q04771 21-509); assay: affinity cross-linking of ^125I-BMP4 to COS-1 cells transfected with ALK2 and daf-4 cDNA; immunoprecipitation with ALK antiserum, autoradiography
T3 construct: Expressed from cDNA in COS-1 cells or in Mv1Lu R mutant cells
T3 sequence: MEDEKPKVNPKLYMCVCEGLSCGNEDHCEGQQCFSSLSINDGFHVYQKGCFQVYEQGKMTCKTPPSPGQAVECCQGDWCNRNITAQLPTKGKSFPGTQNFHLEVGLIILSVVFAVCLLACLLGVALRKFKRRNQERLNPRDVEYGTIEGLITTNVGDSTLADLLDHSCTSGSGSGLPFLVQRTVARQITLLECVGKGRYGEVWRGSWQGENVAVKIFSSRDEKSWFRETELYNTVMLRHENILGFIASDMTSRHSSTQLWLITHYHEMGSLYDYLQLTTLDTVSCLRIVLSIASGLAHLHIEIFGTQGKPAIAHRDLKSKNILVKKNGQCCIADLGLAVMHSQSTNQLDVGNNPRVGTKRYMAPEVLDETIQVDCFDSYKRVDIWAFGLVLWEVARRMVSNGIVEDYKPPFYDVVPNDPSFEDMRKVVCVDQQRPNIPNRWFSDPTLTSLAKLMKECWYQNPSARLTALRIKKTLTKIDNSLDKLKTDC
Protocol: as §1, §2, §3

[5] = molecular target: T2, ALK-5 (transfected cDNA, on cells); assay: affinity cross-linking of ^125I-OP1 to COS-1 cells transfected with ALK5 and daf-4 cDNA; immunoprecipitation with ALK antiserum, autoradiography
Protocol: as §1, §2, §3

[6] = molecular target: T1, ALK-4 (transfected cDNA, on cells); assay: affinity cross-linking of ^125I-OP1 to COS-1 cells transfected with ALK4 and daf-4 cDNA; immunoprecipitation with ALK antiserum, autoradiography
Protocol: as §1, §2, §3

Measured: binding result

B1: BMP-4 (ligand, UniProt P12644 293-408, looked up)
chain: SPKHHSQRARKKNKNCRRHSLYVDFSDVGWNDWIVAPPGYQAFYCHGDCPFPLADHLNSTNHAIVQTLVNSVNSSIPKACCVPTELSAISMLYLDEYDKVVLKNYQEMVVEGCGCR
modifications: ^125I label (radioiodinated, residue not stated)
no binding: [1] | [2] | [3] | [4]

B2: OP-1 (osteogenic protein-1) (ligand)
chain: STGSKQRSQNRSKTPKNQEALRMANVAENSSSDQRQACKKHELYVSFRDLGWQDWIIAPEGYAAYYCEGECAFPLNSYMNATNHAIVQTLVHFINPETVPKPCCAPTQLNAISVLYFDDSSNVILKKYRNMVVRACGCH
modifications: ^125I label (radioiodinated, residue not stated); unlabeled when used as competitor
no binding: [5] | [6]
